According to the nanobody polyreactivity screen of Harvey et al. (2022):

Experiment: yeast display, Sf9 membrane polyspecificity reagent, FACS + sequencing; frameworks hold sequencing errors
How it was run: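 Synthetic nanobody libraries on Saccharomyces cerevisiae BJ5465 were galactose-induced for 36–48 hours, stained 1 hour at 4 °C with 10% biotinylated, detergent-solubilized Sf9 membrane reagent and enriched on streptavidin microbeads. FACS then separated cells into low and high (top ~1%) gates by anti-HA (expression) and streptavidin (reagent binding) fluorescence. Genes were colony-PCR amplified, MiSeq 2 × 250 sequenced and CDR-length filtered. A clone's polyreactivity label is that of its gate of origin.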

Sequence | polyreactivity (PSR sort gate)
QVQLVESGGGLVQAGGSLRLSCAASGSTFGSYAMGWYRQAPGKERELVAAISWNGGRTYYADSVKGRFTISRDNAKNTVYFQRNSLKPEDTAVYYCAKVVKYQSGGGLEYWGQGTQVTVSS | high polyreactivity
QVQLVESGGGLVQAGGSLRLSCAASGSTFGSYTMGWYRQPPGKERELVAAINWSGGNTYYADSVKGRFTISRDNAKNTVYLQMNSLKPEDTAVYYCAAAFYIYGFEGDYWGQGTQVTVSS | low polyreactivity
QVQLVESGGGLVQAGGSLRLSCAASGSTFGSYVMGWYRQAPGKERELVAAIRWSGTSTYYADSVKGRFTISRDNAKNTVYLQLNSLKPEDTAVYYCNATPNYNRGDHTPMDYWGQGTQVTVSS | low polyreactivity
QVQLVESGGGLVQAGGSLRLSCAASGSTFGTNAMGWYRQAPGKEREFVASIRKSGGSTYYADSVKGRFTISRDNSKNTVYLQMNSLKPEDTAVYYCAAVYRRYLGGGYDYWGQGTQVTVSS | high polyreactivity
QVQLVESGGGLVQAGGSLRLSCAASGSTFGTNAMGWYRQAPGKEREFVASISVSGGSTYYADSVKGRFTISRDNAKNTVYLQMNSLKPEDTAVYYCNRRAYRRYQFGYWGQGTQVTVSS | high polyreactivity
QVQLVESGGGLVQAGGSLRLSCAASGSTFGTNAMGWYRQAPGKERELVAAITYSGGRTYYADSVKGRFTISRDNAKNTVYLQMNSLKPEDTAVYYCAATFGFFYYQYEYWGLGTQVTVSS | low polyreactivity
QVQLVESGGGLVQAGGSLRLSCAASGSTFGTYAMGWYRQAPGKERELVASIDNSTSGTYYADSVKGRFTISRDNAKNTVYLQMNSLKPEDTAVYYCAATPLVDGSSIPREGDYWGQGTQVTVSS | low polyreactivity
QVQLVESGGGLVQAGGSLRLSCAASGSTFGTYAQGCYRQAPVKDRELVAAITYSTGNTYDADSVKGRFTISRDNAKNTVYLQMNSLKPEDTAVYYCALEYVYDYFWMDYWGQGTQVTVSS | high polyreactivity
QVQLVESGGGLVQAGGSLRLSCAASGSTFGTYTMGWYRPAPGKERELVAAISNRGGTYYADSVKGRFTISRDNAKNTVYLQMNSMKPEDTAVYYCAVARRWGYDYWGQGTQVTVSS | high polyreactivity
QVQLVESGGGLVQAGGSLRLSCAASGSTFGVNAMGWSRQAPGKERELVAVITRSGGSTYYADSVKGRFTISRDNAKNTVFLQMNSLIPEDTAVYYCAKSGVVDWGQGTQVTVSS | low polyreactivity
QVQLVESGGGLVQAGGSLRLSCAASGSTFGVNAMGWYRQAPGKERELVAGISSGTSTYYADSVKGRFTISRDNAKNTVYLQMNSLKPEDTAVYYCATRWSYRYGYWGQGTQVTVSS | high polyreactivity
QVQLVESGGGLVQAGGSLRLSCAASGSTFGVNTMGWYRQAPGKERELVAAITKSGGSTYYADSVKGRFTISRDNAKNTVYLQMNSLKPEDTAVYYCNTDYGRYLYYRYGYWGQGTQVTVSS | low polyreactivity
QVQLVESGGGLVQAGGSLRLSCAASGSTFGVNTMGWYRQAPGKERELVAAITSRGGSTYYADSVKGRFTISRDNAKNTVYLQMNSLKPEDTAVYYCAAEASYYRIRRYYWGQGTQVTVSS | high polyreactivity
QVQLVESGGGLVQAGGSLRLSCAASGSTFGVYAMGWYRQAPGKERELVAAINARGTRTRYADSVKGRFTISRDNAKNTVYLQMTSMKPEDTAVYYCAAVWYGYYSIDTDGYWGQGSQVTVSS | high polyreactivity
QVQLVESGGGLVQAGGSLRLSCAASGSTFGVYAMGWYRQAPGKERELVAAISGSGAGTYYADSVKGRFTISRDNAKNTVYLQMNSLKPEDTAVYYCAAETYYSIYDYWGQGTQVTVSS | high polyreactivity
QVQLVESGGGLVQAGGSLRLSCAASGSTFGVYNMGWYRQAPGQESELVAAITKSGGSTYYADSVMGLFTISRDNAKNTVYLQMNSMNPEDTAVYYCNTDYGRYLYYRFGYLGQGTQVTVSS | low polyreactivity

Sequence | polyreactivity (PSR sort gate)
QVQLVESGGGLVQAGGSLRLSCAASGSTFGWNTMGWYRQAPGKERELVAAISWYGDRTYYADSVKGRFTISRDNAKNTVYLQMNSLKPEDTAVYYCARQRYYGYYYWGQGTQVTVSS | high polyreactivity
QVQLVESGGGLVQAGGSLRLSCAASGSTFGWYAMGLYRQAPVKERELVATISSGGSTYYADSVKGRFTISRDNAKNNVYLQMNSLKPEDTAVYYCAADYWTYEYPGYDYWGQGTQVTVSS | low polyreactivity
QVQLVESGGGLVQAGGSLRLSCAASGSTFGYNAMAWYRQAPGKERELVAAISWSGGSTYYADSVKGRFTISRDNAKNTVYLQMNSLKPEDTAVYYCATPYVKWNDYWGQGTQVTVSS | low polyreactivity
QVQLVESGGGLVQAGGSLRLSCAASGSTFGYNAMGWYRQAPGKEREFVAAITRRGGNTYYADSVKGRFTISRDNAKNTVYLQMNSLKPEDTAVYYCAARYLQGRYDYWGQGTQVTVSS | high polyreactivity
QVQLVESGGGLVQAGGSLRLSCAASGSTFGYNAMGWYRQAPGKERELVAAISSSGSSTSYADSVKGRFTISRDNAQNTVYLQMNSLKPEDTAVYYCAARWTRQRYRTSYYSWGQGTEVTVSS | high polyreactivity
QVQLVESGGGLVQAGGSLRLSCAASGSTFGYYAMGWYRQAPGKEREFVAAITSDGSSTYYADSVKGRFTISRDNAKNTVYLQMNSMKREDTAVYYCAADTFTYGGYKFYIFYWGQGTQVTVSS | high polyreactivity
QVQLVESGGGLVQAGGSLRLSCAASGSTFGYYAMGWYRQAPGKERELVAAINVSGGRTYYADSVKGRFTISRDNAKNTVYLQMNSLKPEDTAVYYCAASLYSYRSPYTFYYWGQGTQVTVSS | high polyreactivity
QVQLVESGGGLVQAGGSLRLSCAASGSTFGYYAMGWYRQAPGKERELVAAISGSGTSTYYADSVKGRFTISRDNAKNTVYLQMNSLKPEDTAVYYCATRYRYTGCGYWGQGSQVTVSS | low polyreactivity
QVQLVESGGGLVQAGGSLRLSCAASGSTFGYYAMGWYRQAPGKERELVAAISRSGTRTYYADSVKGRFTISRDNAKYTVYLQMNSLKPEDTAVYYCAVKGPARGYDYWGQGTQVTVSS | high polyreactivity
QVQLVESGGGLVQAGGSLRLSCAASGSTFGYYAMGWYRQAPGKERELVAAISWRGGSTYYADSVKGRFTISRDNAKNTVYLQMNSLKPEDTAVYYCAAAIFITGYGSYGYWGQGTQVTVSS | low polyreactivity
QVQLVESGGGLVQAGGSLRLSCAASGSTFGYYAMGWYRQAPGKERELVAAISYIGGSTYYADSVKGRFTISRDNANNTDYLQMNSQKPEDTAVYYCAAQYVTYAYDYWGQGTQVTVSS | low polyreactivity
QVQLVESGGGLVQAGGSLRLSCAASGSTFGYYAMGWYRQAPGKERELVARISGGTRTNYADSVKGRFTISRDNAKNTVYLQMNSLKPEDTAVYYCNAYYYIPFEGRGYSKMDYWGQGTQVTVSS | high polyreactivity
QVQLVESGGGLVQAGGSLRLSCAASGSTFGYYAMGWYRQAPGKERELVASITSDGSTNYADSVKGRFTISRDNAKNTVYLQMNSLKPEDSSVYYCAAYVWRYWHEYDYWGQGTQVTVSS | low polyreactivity
QVQLVESGGGLVQAGGSLRLSCAASGSTFGYYGMGWYRQAPGKETELVAAISTGGRTNYADSVKGRFTISRDNAKNTVYLQMNSLKPEDTAVYYCAADFLSPAYRPSWYRFDYWGLGTQVTVSS | low polyreactivity
QVQLVESGGGLVQAGGSLRLSCAASGSTFGYYTMGWYRQAPGKERELVAAITWSGGSTYYADSVKGRFTISRDNAKNTVFLQMNSLKPEDTAVYYCAAEDYWTPFGYWGQGTQVTVSS | low polyreactivity
QVQLVESGGGLVQAGGSLRLSCAASGSTFGYYTMGWYRQAPGKERQLVAAISWSGGSTYYADSVKGRFTISRDNAKNTVYLLMNSLKPEDTAVYYCARGSQYRLWRTPHYYWGQGTQVTVSS | high polyreactivity
